Results on 8 substances are retold here after publication PMC4278837, “A Cyclic Peptidic Serine Protease Inhibitor: Increasing Affinity by Increasing Peptide Flexibility” (PLoS ONE, 2014).

Assay [1] concerns the target huPA-H99Y (full length human urokinase-type plasminogen activator with H99Y) (human). Put plainly: enzyme inhibition (steady state, chromogenic substrate S-2444); about 2 nM enzyme (purified or conditioned medium of transfected cells) pre-incubated 15 min with varied peptide in HBS (10 mM HEPES pH 7.4, 140 mM NaCl) with 0.1% BSA at 37°C; substrate about KM; fit for competitive inhibition; highest peptide concentration 400 µM.

Assay [2] concerns the target recombinant catalytic domain of huPA-H99Y (residues 159-411) (human) (UniProt P00749). Put plainly: ITC; MicroCal ITC200; peptide injected into 5-50 µM huPA-H99Y catalytic domain; 20 mM sodium phosphate pH 7.4, 140 mM NaCl, 25°C; one-binding-site model. For orientation: ITC needs no label: the signal is the heat of the interaction.
In assay [3] the target is huPA-H99Y (full length human urokinase-type plasminogen activator with H99Y) (human). Put plainly: SPR; Biacore T200; uPA variant amine-coupled to a CM5 chip (about 500 RU); peptides injected in HBS with 0.1% BSA, 30 µL/min, 25°C, pH 7.4; 1:1 kinetic fit; KD = koff/kon. A general note: In SPR one partner is held on a chip, and binding of the other changes the refractive index at the surface.

The target of a further assay is huPA-H99Y-K143A (human). Put plainly: enzyme inhibition (steady state, chromogenic substrate S-2444); about 2 nM enzyme (purified or conditioned medium of transfected cells) pre-incubated 15 min with varied peptide in HBS (10 mM HEPES pH 7.4, 140 mM NaCl) with 0.1% BSA at 37°C; substrate about KM; fit for competitive inhibition; highest peptide concentration 400 µM.

For another assay, the target named is huPA-H99Y-Q192A (human). The assay is described as above.
A further assay deals with huPA-H99Y-R35A (human). The description is as above.
A further assay deals with huPA-H99Y-V41A (human). The description is as above.

The term Ki denotes a measure of affinity in units of concentration, obtained from inhibition or displacement. Lower therefore signals higher affinity. In the case of Mupain-1 S5A (peptide), the Ki in assay [1] is > 1000 µM.
Same read-out and setting: to Mupain-1 Y7A (peptide) belongs 44 µM.
Same read-out and setting: to Mupain-1 P2A (peptide) belongs > 1000 µM; to Mupain-1 Y4A (peptide), > 1000 µM; to Mupain-1 R6A (peptide), > 1000 µM.
As usually defined, the Kd is a measure of binding affinity in units of concentration. In general, stoichiometry N refers to a count of units in the complex or per binding partner. In general, koff refers to a measure of how fast the partners let go of each other. The kon is the rate constant with which the complex forms. High values mean faster complex formation, low ones slower complex formation. Turning to mupain-1 (peptide), in assay [2], the dissociation constant Kd is 5.04 µM, the dH was -8.72 kcal/mol and the stoichiometry N turned out to be 1.09. In assay [3], this substance showed a Kd of 14.1 µM, a koff of 0.802 s⁻¹ and a kon of 56900 M⁻¹ s⁻¹. Moreover, in the assay with huPA-H99Y-K143A (human), the Ki was determined as 56.6 µM. The substance further came in with an inhibition constant Ki with huPA-H99Y-Q192A (human) of 33.2 µM. In the assay with huPA-H99Y-R35A (human), the inhibition constant (Ki) was 39.5 µM. Also, in the assay with huPA-H99Y-V41A (human), the inhibitory constant (Ki) was determined as 32.4 µM.
As to Mupain-1 D9A (peptide), the results for the equilibrium dissociation constant (Kd) in assay [2] and in assay [3] were 1.17 µM and 1.41 µM, respectively. The dH in assay [2] is -9.06 kcal/mol. Further, the stoichiometry N in assay [2] stood at 1.03. The substance further displayed a koff in assay [3] of 0.366 s⁻¹. In addition, the on-rate (kon) in assay [3] worked out at 260000 M⁻¹ s⁻¹. In addition, the inhibitory constant (Ki) was determined as 5.99 µM in assay [1]; 8.74 µM with huPA-H99Y-K143A (human); 4.85 µM with huPA-H99Y-Q192A (human); 2.68 µM with huPA-H99Y-R35A (human); 7.2 µM with huPA-H99Y-V41A (human).
Consider Mupain-1 L8A (peptide), for which the inhibitory constant (Ki) in assay [1] amounted to 19.1 µM.
